How the values were obtained:
[1] = target: meprin α R372T, mature (activated) form (human (from the printed accession)) (UniProt Q16819); experiment: MALDI-TOF mass spectrometry
[2] = target: pro-meprin α C308A (human (from the printed accession)) (UniProt Q16819); experiment: SEC-MALS

Row | Substance | stoichiometry N [1] | stoichiometry N [2]
1 | meprin α R372T, mature (activated) form (from UniProt Q16819 22-600) (enzyme) | 2 | 
2 | pro-meprin α C308A (from UniProt Q16819 22-600) (enzyme) |  | 2

Reference: publication doi:10.1101/2022.03.13.484121
